Patent publication US20090075898A1, “Complement C3A Derived Peptides and Uses Thereof” (Yeda Research and Development Co. Ltd. at the Weizmann …, priority 2005, published 2009)
pKd: −log10 of the molar value.

Columns and labels:
RBL-2H3 cells = conditions: Erdei et al. 1995, 1999; cited from earlier work
[1] = system: rat peritoneal mast cells (RPMC); assay: Secretory response (β-hexosaminidase release) of rat peritoneal mast cells; format: cell-based
Excerpt: Rat peritoneal mast cells (RPMC) were isolated as previously described (Kim et al. J. Immunol. 162:4960-4965, […]). Mast cell preparations were ca. 95% pure, as evaluated by flow cytometric monitoring of FcεRI surface expression. Compound 48/80, a specific activator of serosal type mast cells elicited about 50% release of the total β-hexosaminidase content of the isolated rat peritoneal mast cells.
(§1) Secretory response of mast cells.
While mucosal type mast cells are non-responsive to peptidergic stimuli, the serosal type ones have been known for a long time to be stimulated by cationic secretagogues. The anaphylatoxic peptides C3a and C5a initiate the cells' secretory response by binding to their respective receptors expressed by serosal type mast cells. To investigate the effect of the peptides on this mast cell-type, RPMC were used. As expected, these cells did respond to both C5a and C3a (Table 2). However, degranulation was inhibited when peptides C3a7 or C3a9 were added to the IgE-sensitized RPMC and stimulated, 5 min later with a suboptimal antigen dose (Table 2).

FcεRI β-chain = biological target: T1, FcεRI β-chain (Mus musculus, UniProt P20490); assay: Covalent cross linking of C3a to BMMC, immunoprecipitation and Western blot; format: binding; conditions: C3a 50 μg/ml, BS3 cross linker
T1 construct: endogenous in cells; host or cells: BMMC (bone marrow derived mast cells)
T1 sequence (P20490 1-235): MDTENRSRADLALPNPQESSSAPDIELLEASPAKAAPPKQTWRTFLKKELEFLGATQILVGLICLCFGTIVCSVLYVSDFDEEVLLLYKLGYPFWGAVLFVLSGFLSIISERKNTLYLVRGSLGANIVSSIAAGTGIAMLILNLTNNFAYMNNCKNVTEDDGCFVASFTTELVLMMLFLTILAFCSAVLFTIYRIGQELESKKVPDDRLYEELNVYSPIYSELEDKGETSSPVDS
T1 sequence (P20489 24-250 partner): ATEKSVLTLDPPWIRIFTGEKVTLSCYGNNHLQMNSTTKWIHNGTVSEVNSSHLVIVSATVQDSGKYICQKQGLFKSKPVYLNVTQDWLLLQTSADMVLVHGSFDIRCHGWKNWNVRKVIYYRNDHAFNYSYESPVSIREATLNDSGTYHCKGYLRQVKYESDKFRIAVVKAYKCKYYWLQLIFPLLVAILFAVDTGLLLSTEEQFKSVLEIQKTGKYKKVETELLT
T1 sequence (P20491 19-86 partner): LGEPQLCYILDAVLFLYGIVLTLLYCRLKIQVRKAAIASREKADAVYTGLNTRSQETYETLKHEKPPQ
Description: Covalent cross linking of C3a to BMMC. BMMC were washed and incubated with C3a (50 μg/ml per 15−20×10^6 cells/sample, in PBS) for 10 min at room temperature. After another incubation of 20 min at room temperature with 5 mM of the cross linking reagent bis-(sulphosuccinimidyl)-suberate (BS3, PIERCE, Ill., USA) cells were washed and lysed. Polyclonal rabbit antibodies specific to C3a (Behringwerke AG, Germany) were used for immunoprecipitation. Western blotting was carried out by an FcεRI β chain specific antibody kindly provided by Jean Pierre Kinet (Harvard University, Boston, USA). As secondary antibody, HRPO-conjugated goat anti-mouse IgG (DAKO, Frank Diagnosztika Kft, Hungary) was used. Detection was performed by ECL.
Covalent cross-linking of C3a to BMMC. Since no C3a-receptors could be detected on mucosal type mast cells, the possibility that the peptides exert their inhibitory effect via interaction with a different cell membrane component, probably the type 1 Fcε-receptor, was examined. […] Since the ITAM-bearing β-chain had earlier been reported to act as an amplifier of the FcεRI response, the interaction of C3a with this membrane protein on BMMC was determined. Cells were incubated with C3a followed by adding the covalent cross linking agent, BS^3-reagent. […] Protein samples were separated by SDS-PAGE and analyzed by Western-blotting, using FcεRI β-chain specific antibodies.

rat FcεRI β chain = rat FcεRI β chain (Rattus norvegicus, UniProt P13386); assay: Surface plasmon resonance, immobilized extracellular loop peptides of rat FcεRI β chain; conditions: SPR
[2] = system: bone marrow derived mast cells (BMMC); assay: Secretory response (β-hexosaminidase release) of bone marrow derived mast cells; format: cell-based, mouse
Description: Cells. Bone marrow derived mast cells (BMMC) were prepared from Balb/c mice as described by Nagao et al. (Science 212: 333-335, 1981). After 3 weeks, an approximately 95% pure mast cell population was obtained, showing high expression of FcεRI and stem cell factor receptor (c-kit), as measured by flow cytometry.
as §1
Similar experiments were carried out using bone-marrow derived mast cells (BMMC). […] The control peptide of the sequence DVSNYITR had no effect on either system.

human FcεRI β chain = human FcεRI β chain (Homo sapiens, UniProt Q01362); assay: Surface plasmon resonance, immobilized extracellular loop peptides of human FcεRI β chain; conditions: SPR

For “C3a: human complement component C3a, a 77-mer peptide (SEQ ID NO:1), isolated”, the “Inhibition of IgE-mediated degranulation of RBL-2H3 cells (literature)” value (RBL-2H3 cells) is given as “inhibit”, the “Stimulation of secretory response of RPMC by the peptide itself” value ([1]; non-sensitized cells, no antigen) is given as “did respond” and the “Inhibitory effect (IC50) on the IgE-mediated degranulation of rat peritoneal mast cells (RPMC)” value ([1]; suboptimal antigen-dose) is given as “Activation*”. For the same substance, the “Cross-linked complex with FcεRI β-chain on BMMC” value (FcεRI β-chain) was “covalent complex”, the “Interaction with the second extracellular loop of rat FcεRI β chain” value (rat FcεRI β chain) was “No interaction could be detected” and the pKd (rat FcεRI β chain; read-out: Kd, first extracellular loop of rat FcεRI β chain, koff/kon) was 6.28. For the same substance, the “Inhibition of IgE-mediated secretory response of BMMC” value [2] was “found to inhibit”, the “Interaction with the second extracellular loop of human FcεRI β chain” value (human FcεRI β chain) was “No interaction could be detected” and the pKd (human FcεRI β chain; read-out: Kd, first extracellular loop of human FcεRI β chain, koff/kon) was 6.60.
